The record followed here is patent WO2018007922A2 (dated 2018).

The target in this experiment is recombinant human TTR F87M/L110M (human, UniProt P02766 21-147). The experiment is described as follows: Biacore SPR, mAb captured on anti-human chip, TTR F87M/L110M as analyte. On the technique in general: SPR reads the build-up and loss of mass on a sensor chip optically.

B1: Hu9D5 H4L1 (antibody, V domains shown)
VH: EVQLVESGGGLVQPGGSLRLSCAASGFTFSSYTMSWVRQAPGKGLEWVSEISNSGDTTYYPDTVKGRFTISRDNAKNSLYLQSNLLRAEDTAVYYCARHYYYGGGYGGWFFDVWGQGTTVTVSS
VL: DIVMTQSPLSLPVTPGEPASISCRSSKSLLHSNGNTYLYWFLQKPGQSPQLLIYRVSNLASGVPDRFSGSGSGTDFTLKISRVEAEDVGVYYCMQHLEYPLTFGQGTKLEIK
notes: not tied by words to the tested antibody; also called humanized 9D5 VHv4/VLv1
By Kd is commonly meant the free concentration of one partner at which half of the binding sites on the other are occupied at equilibrium, for simple one-to-one binding. As to B1, the dissociation constant Kd came to 2.09 nM.
